Data on four substances can be found in US20250215050A1.

In experiment [1] the target is CHO host cell proteins (HCPs). The experiment in a line: static binding, null CHO-S cell culture fluid; summary for G.1 and G.2 together.
For experiment [2], the target named is CHO host cell proteins (HCPs). The experiment can be described thus: dynamic binding of CHO HCPs, residence time 1 min; summary.
For experiment [3], the target named is CHO host cell proteins (HCPs). The experiment in a line: dynamic binding, CHO cell culture fluid; summary for G.1 and G.2 together.
The target of experiment [4] is CHO host cell proteins (HCPs). The experiment can be described thus: static binding of CHO HCPs; summary.
In experiment [5] the target is CHO host cell proteins (HCPs). The experiment in a line: dynamic binding of CHO HCPs, residence time 2 min; summary.
Experiment [6] concerns the target CHO host cell proteins (HCPs). The experiment can be described thus: static binding on resin, Langmuir isotherm fit; non-competitive, null CHO-S harvest; average HCP MW of 40 kDa assumed.
The target in experiment [7] is CHO host cell proteins (HCPs). The experiment in a line: static binding on resin, Langmuir isotherm fit; non-competitive, null CHO-S harvest.
The target in experiment [8] is CHO host cell proteins (HCPs). The experiment in a line: adsorption kinetics on resin (FIG. 8A), null CHO-S harvest; average HCP MW of 40 kDa assumed.
Experiment [9] concerns the target CHO host cell proteins (HCPs). The experiment in a line: static binding on resin, Langmuir fit; competitive, CHO HCPs with 5 mg/mL NISTmAb; HCP ELISA.
Experiment [10] concerns the target CHO host cell proteins (HCPs). The experiment in a line: static binding on resin, competitive, CHO HCPs with 1 mg/mL NIST mAb.
In experiment [11] the target is CHO host cell proteins (HCPs). The experiment can be described thus: static binding on resin, Langmuir fit; competitive, CHO HCPs with 1 mg/mL NISTmAb; HCP ELISA. On the technique in general: An ELISA detects its analyte on a solid surface through an enzyme-linked reagent.
Experiment [12] addresses CHO host cell proteins (HCPs). The experiment can be described thus: breakthrough curve, industrial CHO harvest (mAb 1.38 mg/mL, HCP 0.46 mg/mL), residence time 0.5 min.
The target in experiment [13] is NIST mAb. The experiment can be described thus: adsorption kinetics on resin (FIG. 8A), pure NIST mAb in PBS pH 7.4.
Experiment [14] addresses CHO host cell proteins (HCPs). The experiment can be described thus: breakthrough curve, industrial CHO harvest (mAb 1.38 mg/mL, HCP 0.46 mg/mL), residence time 2 min.
In experiment [15] the target is NIST mAb. The experiment in a line: static binding on resin, Langmuir isotherm fit; non-competitive, pure NISTmAb solution.
Experiment [16] has as its target CHO host cell proteins (HCPs). The experiment can be described thus: breakthrough curve, industrial CHO harvest (mAb 1.38 mg/mL, HCP 0.46 mg/mL), residence time 1 min.
Experiment [17] has as its target CHO host cell proteins (HCPs). The experiment in a line: static binding on resin, competitive against non-competitive conditions.
The target of experiment [18] is CHO host cell proteins (HCPs). The experiment in a line: static binding on resin, competitive, CHO HCPs with 5 mg/mL NIST mAb.
The target in experiment [19] is CHO host cell proteins (HCPs). The experiment in a line: breakthrough curve, industrial CHO harvest (mAb 1.38 mg/mL, HCP 0.46 mg/mL), residence time 5 min.
In experiment [20] the target is non-Ig plasma proteins. The experiment in a line: flow-through loading of cryo-poor plasma diluted 10-fold, above 10 CVs.
Experiment [21] concerns the target non-Ig plasma proteins. The experiment can be described thus: flow-through loading of diluted cryo-rich plasma, two-column process.
Experiment [22] addresses CHO host cell proteins (HCPs). The experiment can be described thus: static binding on resin, Langmuir isotherm fit; non-competitive; average HCP MW of 40 kDa assumed (Table 1 prints 6.50).

In turn, LigaGuard™ gave a Qmax (maximum binding capacity) (mg per mL of resin) in experiment [1] of 28 to 30. The 10% breakthrough capacity was less than 16 mg/mL in [2] and less than 22 mg/mL in experiment [5]. Also, in experiment [3], the DBC10% was in the range of 16 to 22 mg/mL. Besides, the equilibrium capacity (mg per mL of resin) in experiment [4] amounted to 30.

The Kd is a measure of binding affinity in units of concentration. One may read the kon as a measure of how fast the partners come together. High values mean faster complex formation, low ones slower complex formation. Turning to “second generation (G.2) LigaGuard™ resin”, the Kd was determined as 3.25 µM in experiment [6], 4.75 µM in experiment [9], 4.25 µM in experiment [11] and 28.3 µM in the experiment with NIST mAb [15]. Further, the Qmax (static binding capacity) in experiment [7] worked out at 24.5 mg/mL; in [9], 22.4 mg/mL; in experiment [11] it was 23.1 mg/mL; with NIST mAb [15], 10.5 mg/mL. Further, the kon in experiment [8] is 39000 M⁻¹ s⁻¹; with NIST mAb [13], 8710 M⁻¹ s⁻¹. The Qmax,HCPs was 18 mg per mL in experiment [10] and 16 mg per mL in experiment [18]. The DBC10% (dynamic binding capacity at 10% breakthrough) in [12] amounted to 14.3 mg/mL; in experiment [14], 16.2 mg/mL; in experiment [16] it was 16.7 mg/mL; in experiment [19] it was 17.6 mg per mL. This substance displayed a decrease of Qmax,HCPs on adding 1 mg/mL mAb in [17] of 25%.

As for “second-generation LigaGuard™ adsorbent (plasma work, Examples 5 and 6)”, the QPP at saturation with non-Ig plasma proteins [20] worked out at 30 mg/mL. The substance further gave a binding capacity (mg per mL of resin) in the experiment with non-Ig plasma proteins [21] of 32.

For the substance first generation (G.1) LigaGuard™ resin, the Kd in experiment [6] amounted to 6.5 µM; in experiment [9], 8.75 µM; in [22], 6.75 µM; in experiment [11], 8.75 µM; in the experiment with NIST mAb [15] it was 14.2 µM. Further, the Qmax (static binding capacity) in experiment [7] was found to be 21.8 mg/mL; in experiment [9] it was 15.6 mg/mL; in experiment [11], 18.8 mg/mL; in the experiment with NIST mAb [15] it was 11.5 mg/mL. Besides, the Qmax,HCPs in experiment [10] was determined as 13 mg/mL; in experiment [18], 10 mg per mL.
